According to publication PMC8437803, “Structural basis of RNA processing by human mitochondrial RNase P” (Nature Structural & Molecular Biology, 2021):

Target: T1, Δ1–45 PRORP (human, UniProt O15091 46-583)
T1 construct: PRORP (MRPP3), human, without the predicted mitochondrial targeting signal (residues 1-45); also called MRPP3; Δ45-PRORP; source: E. coli BL21 (DE3) RIL, purified (HisTrap, TEV cleavage, heparin, Superdex 200); not shown: His6, N-terminal, cleaved
T1 sequence (looked up): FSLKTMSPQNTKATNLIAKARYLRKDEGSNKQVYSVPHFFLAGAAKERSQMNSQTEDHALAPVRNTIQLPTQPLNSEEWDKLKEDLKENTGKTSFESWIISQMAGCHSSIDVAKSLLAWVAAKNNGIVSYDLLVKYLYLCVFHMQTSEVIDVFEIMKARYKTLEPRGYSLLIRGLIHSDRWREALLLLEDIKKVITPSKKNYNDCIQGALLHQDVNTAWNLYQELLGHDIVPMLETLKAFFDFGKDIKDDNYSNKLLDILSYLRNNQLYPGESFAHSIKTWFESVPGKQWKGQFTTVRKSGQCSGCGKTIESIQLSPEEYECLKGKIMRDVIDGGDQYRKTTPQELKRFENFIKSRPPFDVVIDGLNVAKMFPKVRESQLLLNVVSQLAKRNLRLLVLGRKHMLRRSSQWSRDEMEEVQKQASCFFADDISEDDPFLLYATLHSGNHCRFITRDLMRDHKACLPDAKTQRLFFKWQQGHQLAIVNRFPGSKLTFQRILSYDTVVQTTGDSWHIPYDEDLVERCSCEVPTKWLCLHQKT
Assay: cryo-EM structure; Δ1–39 TRMT10C–SDR5C1 complex mixed with pre-tRNA^Tyr and NADH, then PRORP added, 30 °C, 100 mM Tris-HCl pH 8.0, 100 mM NaCl, 250 μM EDTA (Mg2+-depleted), 2 mM DTT; complex purified on Superdex 200 Increase 3.2/300; single-particle cryo-EM, 3.0 Å
Conditions: both partners purified

B1: Δ1–39 TRMT10C (enzyme, human, UniProt Q7L0Y3 40-403, looked up)
chain: MSSKIPAVTYPKNESTPPSEELELDKWKTTMKSSVQEECVSTISSSKDEDPLAATREFIEMWRLLGREVPEHITEEELKTLMECVSNTAKKKYLKYLYTKEKVKKARQIKKEMKAAAREEAKNIKLLETTEEDKQKNFLFLRLWDRNMDIAMGWKGAQAMQFGQPLVFDMAYENYMKRKELQNTVSQLLESEGWNRRNVDPFHIYFCNLKIDGALHRELVKRYQEKWDKLLLTSTEKSHVDLFPKDSIIYLTADSPNVMTTFRHDKVYVIGSFVDKSMQPGTSLAKAKRLNLATECLPLDKYLQWEIGNKNLTLDQMIRILLCLKNNGNWQEALQFVPKRKHTGFLEISQHSQEFINRLKKAKT
notes: TRMT10C (MRPP1), human, without the predicted mitochondrial targeting signal (residues 1-39); 6x His tag and TEV site on TRMT10C only; tag cleaved by TEV protease during purification; also called MRPP1; Δ39 TRMT10C; source: E. coli BL21 (DE3) RIL, coexpressed with SDR5C1, copurified (HisTrap, TEV cleavage, heparin, Superdex 200); not shown: His6, N-terminal, cleaved
binding result: binds
